Data on two molecules can be found in US20060135432A1, “Agonists and antagonists of conadotropin-releasing hormone-2, and use thereof” (priority 2002, published 2006).

The target of assay [1] is bfGnRHR-3 (bullfrog). Briefly: displacement of I^125-GnRH-2 from membranes of GH3 cells expressing bfGnRHR-3. To be noted: scale: log IC50.
Assay [2] addresses rat GnRHR (rat) (UniProt P30969). Kind of assay: displacement of I^125-GnRH-2 from membranes of GH3 cells expressing rat GnRHR. The conditions noted are these: scale: log IC50.
For assay [3], the target named is bfGnRHR-3 (bullfrog). Kind of assay: cell-based or functional assay. The conditions noted are these: for Log IC50, inhibition of GnRH-2-induced inositol phosphate production in GH3 cells expressing the receptor: scale: log IC50.
Assay [4] concerns the target rat GnRHR (rat) (UniProt P30969). Kind of assay: cell-based or functional assay. To be noted: scale: log IC50.

[ ]: non-standard residue; d: D form. dPhe(4-Cl) = N[C@H](Cc1ccc(Cl)cc1)C(=O)O; d2Nal = N[C@H](Cc1ccc2ccccc2c1)C(=O)O; dCit = NC(=O)NCCC[C@@H](N)C(=O)O; d3Pal = N[C@H](Cc1cccnc1)C(=O)O

Sequence of rat GnRHR (rat) (P30969 whole entry): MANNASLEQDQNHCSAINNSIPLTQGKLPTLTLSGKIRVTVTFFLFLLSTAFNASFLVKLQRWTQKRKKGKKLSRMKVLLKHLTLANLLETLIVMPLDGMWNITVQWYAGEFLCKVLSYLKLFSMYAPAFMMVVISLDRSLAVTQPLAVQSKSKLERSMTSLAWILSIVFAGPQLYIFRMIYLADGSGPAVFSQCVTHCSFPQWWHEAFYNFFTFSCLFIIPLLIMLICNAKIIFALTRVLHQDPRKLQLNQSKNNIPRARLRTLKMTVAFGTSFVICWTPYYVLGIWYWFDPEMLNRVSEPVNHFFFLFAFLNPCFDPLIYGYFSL

Turning to Ac-[d2Nal][dPhe(4-Cl)][d3Pal]SY[dCit]LRP[dA]-NH2 [Cetrorelix], the log IC50 was -7.11 with bfGnRHR-3 (bullfrog) [1] and -12.6 with rat GnRHR (rat) [2]. The same molecule gave a Log IC50, inhibition of GnRH-2-induced inositol phosphate production in GH3 cells expressing the receptor with bfGnRHR-3 (bullfrog) [3] of -6.28. In the assay with rat GnRHR (rat) [4], this molecule registered a Log IC50, inhibition of GnRH-induced inositol phosphate production in GH3 cells expressing the receptor of -11.

As for Ac-[d2Nal][dPhe(4-Cl)][d3Pal]SY[dCit]WYP[dA]-NH2 [Trptorelix-1], the log IC50 with bfGnRHR-3 (bullfrog) [1] is -11.7. For the same molecule, the log IC50 with rat GnRHR (rat) [2] was -11.8. Also, in the assay with bfGnRHR-3 (bullfrog) [3], the inhibition of GnRH-2-induced IP production, sensitivity compared with Cetrorelix (fold more sensitive than Cetrorelix) came to 1000 and the Log IC50, inhibition of GnRH-2-induced inositol phosphate production in GH3 cells expressing the receptor was -8.49. In the assay with rat GnRHR (rat) [4], the Log IC50, inhibition of GnRH-induced inositol phosphate production in GH3 cells expressing the receptor was -9.27.
